From PMC4815241 (Protein Science : A Publication of the Protein Society, 2015) come the findings set out here.

Test [1] addresses recombinant full-length murine eIF4E (murine) (UniProt P63073). Nature of the test: SEC-MALS; static light scattering after 10 min of complex formation.
Test [2] shares this target. The test can be described thus: SEC-MALS; static light scattering on eIF4E/2A^proC106S complexes formed overnight. For orientation: Size exclusion chromatography separates by hydrodynamic size, large species first.
Test [3] has as its target HRV2 2A^proC106S (human rhinovirus 2). Nature of the test: SEC-MALS; Superdex 200 10/300 in assay buffer, miniDAWN light scattering instrument, 100 µg sample.
In test [4] the target is eIF4GII_(551–745)/eIF4E complex (human | murine) (UniProt O43432). Nature of the test: ITC; MicroCal ITC microcalorimeter; the ligand titrated into the protein in the cell (cell about 10× lower than titrant); 25°C; 20 mM Hepes/KOH pH 7.4, 150 mM KCl, 1 mM EDTA; three experiments. (In general: ITC needs no label: the signal is the heat of the interaction.)
The target of test [5] is human eIF4GII residues 551–745 (human) (UniProt O43432). The test is described as above.
Test [6] has as its target recombinant full-length murine eIF4E (murine) (UniProt P63073). The test is described as above.
The target of test [7] is human eIF4GII residues 551–745 (human) (UniProt O43432). The description is as above. The source holds these as a separate data set.
The target in test [8] is recombinant full-length murine eIF4E (murine) (UniProt P63073). Described as above. The source holds these as a separate data set.
Test [9] addresses eIF4GII_(551–745)/eIF4E complex (human | murine) (UniProt O43432). Nature of the test: SEC-MALS; Superdex 200 10/300 in assay buffer, miniDAWN light scattering instrument, 100 µg sample.
In test [10] the target is T1, recombinant full-length murine eIF4E (murine, UniProt P63073 1-217). Described as above. The note with it: both partners purified.
For test [11], the target named is T1, recombinant full-length murine eIF4E. The test can be described thus: ITC; MicroCal ITC microcalorimeter; the ligand titrated into the protein in the cell (cell about 10× lower than titrant); 25°C; 20 mM Hepes/KOH pH 7.4, 150 mM KCl, 1 mM EDTA; three experiments. To be noted: both partners purified.

A word on the stoichiometry N: it is the number of molecules, sites or subunits per partner or assembly. Usually Kd stands for the constant that tells how readily two partners part at equilibrium.

Read-outs that look alike come from different tables or passages of the source.

recombinant full-length murine eIF4E (murine), sequence (P63073 whole entry, the tested form may be a part): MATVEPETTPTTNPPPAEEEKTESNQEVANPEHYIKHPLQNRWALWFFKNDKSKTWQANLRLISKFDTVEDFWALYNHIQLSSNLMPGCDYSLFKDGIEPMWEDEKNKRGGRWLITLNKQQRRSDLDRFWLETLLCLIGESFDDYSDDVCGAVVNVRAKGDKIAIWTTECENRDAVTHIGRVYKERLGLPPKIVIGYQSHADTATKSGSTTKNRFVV
T1 sequence (P63073 whole entry): as the sequence (P63073 whole entry, the tested form may be a part) above

As to “HRV2 2A^pro bearing the mutations C106S and C138S (enzyme)”, the stoichiometry N in [1] amounted to 1.
Consider HRV2 2A^proC106S (enzyme), for which the stoichiometry N in test [2] is 1; in test [3] it was 2. The Kd came to 5.1 µM in test [4]; 75 µM in test [5]; 12 µM in test [6]; 86 µM in test [7]; 8 µM in test [8].
In test [9], “CVB4 2A^proC110A with a N-terminal extension of eight VP1 residues (enzyme)” came in with a stoichiometry N of 1. Further, the Kd in test [4] and in [5] was 19 µM each time.

B1: human eIF4GII residues 551–745 (domain or fragment, UniProt O43432 551-745, looked up)
chain: GFHPERDPSDLKKVKAVEENGEEAEPVRNGAESVSEGEGIDANSGSTDSSGDGVTFPFKPESWKPTDTEGKKQYDREFLLDFQFMPACIQKPEGLPPISDVVLDKINQPKLPMRTLDPRILPRGPDFTPAFADFGRQTPGGRGVPLLNVGSRRSQPGQRREPRKIITVSVKEDVHLKKAENAWKPSQKRDSQADD
Regarding B1, the “stoichiometry N” value in test [10] stood at 1. In test [11], the Kd stood at 0.042 µM.
